Assay results taken from the supplement of paper PMC9233669.
This sample holds only a part of the variants without activity.

How the values were obtained:
biotinyl-Phe-oxazolone = assay: self-aminoacylation, catalytic enhancement (BFO) (fold over background); higher = more active; k-Seq, kA / k0A0; sequences stand for … in GGGAAUGGAUCCACAUCUACGAAUUC…UUCACUGCAGACUUGACGAAGCUG
Method in brief: (§1)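 Catalytic enhancement equals the median kA over the uncatalyzed rate, the latter read from the low-activity peak of a bimodal Gaussian fit. Values of kA came from fitting each sequence's fraction reacted to a pseudo-first-order model, with 1000 bootstraps. Reacted RNA was captured with streptavidin and quantified by triplicate qPCR and Illumina sequencing after 90 minutes at room temperature with 2–1250 μM biotinyl-aminoacyl-oxazolone and 0.43 μM mutagenized RNA pools bearing a 21-nt variable region.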

biotinyl-Ile-oxazolone = assay: self-aminoacylation, catalytic enhancement (BIO) (fold over background); higher = more active; k-Seq, kA / k0A0; sequences stand for … in GGGAAUGGAUCCACAUCUACGAAUUC…UUCACUGCAGACUUGACGAAGCUG
Method in brief: as §1

biotinyl-Met-oxazolone = assay: self-aminoacylation, catalytic enhancement (BMO) (fold over background); higher = more active; k-Seq, kA / k0A0; sequences stand for … in GGGAAUGGAUCCACAUCUACGAAUUC…UUCACUGCAGACUUGACGAAGCUG
Method in brief: as §1

biotinyl-Val-oxazolone = assay: self-aminoacylation, catalytic enhancement (BVO) (fold over background); higher = more active; k-Seq, kA / k0A0; sequences stand for … in GGGAAUGGAUCCACAUCUACGAAUUC…UUCACUGCAGACUUGACGAAGCUG
Method in brief: as §1

biotinyl-Leu-oxazolone = assay: self-aminoacylation, catalytic enhancement (BLO) (fold over background); higher = more active; k-Seq, kA / k0A0; sequences stand for … in GGGAAUGGAUCCACAUCUACGAAUUC…UUCACUGCAGACUUGACGAAGCUG
Method in brief: as §1

biotinyl-Trp-oxazolone = assay: self-aminoacylation, catalytic enhancement (BWO) (fold over background); higher = more active; k-Seq, kA / k0A0; sequences stand for … in GGGAAUGGAUCCACAUCUACGAAUUC…UUCACUGCAGACUUGACGAAGCUG
Method in brief: as §1

Row | Sequence | self-aminoacylation (biotinyl-Phe-oxazolone) | self-aminoacylation (biotinyl-Ile-oxazolone) | self-aminoacylation (biotinyl-Met-oxazolone) | self-aminoacylation (biotinyl-Val-oxazolone) | self-aminoacylation (biotinyl-Leu-oxazolone) | self-aminoacylation (biotinyl-Trp-oxazolone)
1 | CUACUUCCAACAAUCGGUUUG [Fam1A.1 aminoacylation ribozyme variant] | 0.87 | 0.747 | 0.713 | 0.76 | 0.645 | 0.678
2 | CUACUUCCAACAAUCUGUCUG [Fam1A.1 aminoacylation ribozyme variant] | 0.746 | 0.776 | 0.488 | 0.757 | 0.59 | 0.438
3 | CUACUUCCAACUAUCGGUCUG [Fam1A.1 aminoacylation ribozyme variant] | 1.08 | 0.81 | 0.833 | 0.92 | 0.942 | 0.744
4 | CUACUUCCAAGAAUCGGUCUG [Fam1A.1 aminoacylation ribozyme variant] | 0.97 | 0.838 | 0.934 | 0.776 | 0.762 | 1.04
5 | CUACUUCGAACAAUCGGUCUC [Fam1A.1 aminoacylation ribozyme variant] | 0.828 | 0.781 | 0.66 | 0.683 | 0.648 | 0.507
6 | CUACUUCGAACAAUCGGUCUG [Fam1A.1 aminoacylation ribozyme variant] | 0.684 | 0.623 | 0.618 | 0.684 | 0.614 | 0.566
7 | CUACUUCGAACAAUCGGUUUG [Fam1A.1 aminoacylation ribozyme variant] | 0.591 | 0.649 | 0.581 | 0.717 | 0.526 | 0.404
8 | CUACUUCGAUCAAUCGGUCUG [Fam1A.1 aminoacylation ribozyme variant] | 0.778 | 0.591 | 0.528 | 0.584 | 0.585 | 0.434
9 | CUACUUCUAACAAUCAGUCUG [Fam1A.1 aminoacylation ribozyme variant] | 0.82 | 0.663 | 0.524 | 0.689 | 0.603 | 0.502
10 | CUACUUCUAACUAUCGGUCUG [Fam1A.1 aminoacylation ribozyme variant] | 0.796 | 0.734 | 0.766 | 0.841 | 0.628 | 0.65
11 | CUACUUCUUACAAUCGGUCUG [Fam1A.1 aminoacylation ribozyme variant] | 0.695 | 0.767 | 0.812 | 0.707 | 0.624 | 0.524
12 | CUACUUGAAAAAAUCGGUCUG [Fam1A.1 aminoacylation ribozyme variant] | 0.472 | 0.862 | 0.781 | 0.822 | 0.801 | 0.84
13 | CUACUUGAAACAAUAGGUCUG [Fam1A.1 aminoacylation ribozyme variant] | 0.837 | 1.06 | 1.09 | 1.05 | 1.13 | 0.841
14 | CUACUUGAAACAAUCGGUAUG [Fam1A.1 aminoacylation ribozyme variant] | 0.5 | 0.654 | 0.67 | 0.699 | 0.838 | 0.504
15 | CUACUUGAAACAAUCGGUCGG [Fam1A.1 aminoacylation ribozyme variant] | 0.733 | 0.997 | 0.994 | 0.949 | 1.13 | 0.589
16 | CUACUUGAAAUAAUCGGUCUG [Fam1A.1 aminoacylation ribozyme variant] | 0.723 | 0.785 | 0.801 | 0.784 | 0.68 | 0.619
17 | CUACUUGAACCAAUCGGUCUG [Fam1A.1 aminoacylation ribozyme variant] | 0.74 | 0.821 | 0.841 | 0.879 | 0.941 | 0.582
18 | CUACUUUAAACAAUCGAUCUG [Fam1A.1 aminoacylation ribozyme variant] | 0.815 | 0.768 | 0.675 | 0.741 | 0.683 | 0.852
19 | CUACUUUAAACAAUCGGUCAG [Fam1A.1 aminoacylation ribozyme variant] | 0.862 | 0.617 | 0.716 | 0.655 | 0.588 | 0.417
20 | CUAGACUUCAAGCAAUCGGUC [Fam1B.1 aminoacylation ribozyme variant] | 34.1 | 0.981 | 1.05 | 0.979 | 1.37 | 16.2
21 | CUAGAUCAAACAAUCGGUCUG [Fam1A.1 aminoacylation ribozyme variant] | 2.24 | 0.703 | 0.578 | 0.798 | 0.708 | 1.22
22 | CUAGUUCAAACAAUAGGUCUG [Fam1A.1 aminoacylation ribozyme variant] | 0.923 | 1.04 | 0.949 | 0.952 | 1.09 | 0.721
23 | CUAGUUCAAACAAUCGGGCUG [Fam1A.1 aminoacylation ribozyme variant] | 2.64 | 1.54 | 1.4 | 1.42 | 1.79 | 2.72
24 | CUAGUUCAAACAAUCGGUCUA [Fam1A.1 aminoacylation ribozyme variant] | 2.81 | 0.813 | 0.777 | 0.759 | 0.647 | 1.43
25 | CUAGUUCAACCAAUCGGUCUG [Fam1A.1 aminoacylation ribozyme variant] | 3.36 | 1 | 0.955 | 0.913 | 1.06 | 2.82
26 | CUAGUUGAAACAAUCGGUCUG [Fam1A.1 aminoacylation ribozyme variant] | 0.861 | 0.923 | 0.974 | 0.828 | 0.841 | 0.834

Row | Sequence | self-aminoacylation (biotinyl-Phe-oxazolone) | self-aminoacylation (biotinyl-Ile-oxazolone) | self-aminoacylation (biotinyl-Met-oxazolone) | self-aminoacylation (biotinyl-Val-oxazolone) | self-aminoacylation (biotinyl-Leu-oxazolone) | self-aminoacylation (biotinyl-Trp-oxazolone)
27 | CUAUACUUCAAGCAAUCGGUC [Fam1B.1 aminoacylation ribozyme variant] | 21.3 | 0.782 | 0.837 | 0.936 | 1.06 | 9.69
28 | CUAUCUCAAACAAUCGGUCUG [Fam1A.1 aminoacylation ribozyme variant] | 1.87 | 0.789 | 0.856 | 0.781 | 0.628 | 1.35
29 | CUAUUUCAAACAAGCGGUCUG [Fam1A.1 aminoacylation ribozyme variant] | 0.738 | 1.01 | 0.882 | 0.933 | 1.02 | 0.77
30 | CUAUUUCAAACACUCGGUCUG [Fam1A.1 aminoacylation ribozyme variant] | 1.36 | 0.995 | 0.95 | 0.921 | 0.875 | 0.925
31 | CUAUUUCAAGCAAUCGGUCUG [Fam1A.1 aminoacylation ribozyme variant] | 1.61 | 0.881 | 0.741 | 0.795 | 0.996 | 0.883
32 | CUAUUUCACACAAUCGGUCUG [Fam1A.1 aminoacylation ribozyme variant] | 0.675 | 0.88 | 0.848 | 0.774 | 0.766 | 0.617
33 | CUAUUUCUAACAAUCGGUCUG [Fam1A.1 aminoacylation ribozyme variant] | 0.973 | 0.913 | 0.818 | 0.787 | 0.824 | 0.668
34 | CUCCUUCAAAAAAUCGGUCUG [Fam1A.1 aminoacylation ribozyme variant] | 11.8 | 1.16 | 1.09 | 1.01 | 1.3 | 9.62
35 | CUCCUUCAAACAAUCGAUCUG [Fam1A.1 aminoacylation ribozyme variant] | 2.82 | 0.586 | 0.571 | 0.705 | 0.589 | 1.2
36 | CUCCUUCAAACAAUCGGUAUG [Fam1A.1 aminoacylation ribozyme variant] | 13.8 | 0.742 | 1.07 | 0.866 | 1.24 | 11.2
37 | CUCCUUCAAACAAUCGGUCUC [Fam1A.1 aminoacylation ribozyme variant] | 40.8 | 1.11 | 1.19 | 0.933 | 1.75 | 26.2
38 | CUCCUUCAAACAAUCGGUUUG [Fam1A.1 aminoacylation ribozyme variant] | 43.9 | 1.17 | 1.3 | 1.4 | 1.89 | 30.6
39 | CUCCUUCAAACAAUCGUUCUG [Fam1A.1 aminoacylation ribozyme variant] | 1.68 | 0.51 | 0.501 | 0.631 | 0.472 | 0.785
40 | CUCCUUCAAACAAUCUGUCUG [Fam1A.1 aminoacylation ribozyme variant] | 2.63 | 0.655 | 0.516 | 0.61 | 0.554 | 1.23
41 | CUCCUUCACACAAUCGGUCUG [Fam1A.1 aminoacylation ribozyme variant] | 1.55 | 0.907 | 0.799 | 0.985 | 0.686 | 0.895
42 | CUCCUUGAAACAAUCGGUCUG [Fam1A.1 aminoacylation ribozyme variant] | 1.25 | 1.1 | 1.31 | 1.19 | 1.18 | 1.73
43 | CUCCUUUAAACAAUCGGUCUG [Fam1A.1 aminoacylation ribozyme variant] | 1.73 | 0.972 | 1.12 | 0.974 | 0.712 | 1.36
44 | CUGCUUCAAACAACCGGUCUG [Fam1A.1 aminoacylation ribozyme variant] | 0.915 | 0.683 | 0.664 | 0.932 | 0.793 | 0.921
45 | CUGCUUCAAACAAUCGGACUG [Fam1A.1 aminoacylation ribozyme variant] | 49.5 | 1.13 | 1.26 | 1.21 | 1.79 | 28.3
46 | CUGCUUCAAACAAUCGGUCGG [Fam1A.1 aminoacylation ribozyme variant] | 183 | 1.48 | 2.05 | 1.71 | 3.72 | 59.6
47 | CUGCUUCAAACAAUCGGUCUA [Fam1A.1 aminoacylation ribozyme variant] | 80.1 | 1.3 | 1.33 | 1.34 | 2.18 | 38.8
48 | CUGCUUCAAACUAUCGGUCUG [Fam1A.1 aminoacylation ribozyme variant] | 1.35 | 0.856 | 0.752 | 1.07 | 0.976 | 0.937
49 | CUGCUUCAAAGAAUCGGUCUG [Fam1A.1 aminoacylation ribozyme variant] | 14.5 | 1.04 | 1.19 | 0.891 | 1.39 | 11.7
50 | CUGCUUCACACAAUCGGUCUG [Fam1A.1 aminoacylation ribozyme variant] | 0.641 | 0.733 | 0.911 | 0.757 | 0.836 | 0.824
51 | CUUACCAUGGUCAUCGAGUGA [Fam2.1 aminoacylation ribozyme variant] | 14.4 | 3.16 | 5.89 | 3 | 5.9 | 7.03
